Measurements: patent US20050208042A1 (GENETICS INSTITUTE, published 2005)

T1: human B7-2 (CD86) expressed on the cell surface (CHO/hB7-2 cells) (human, UniProt P42081 24-329)
T1 sequence (looked up): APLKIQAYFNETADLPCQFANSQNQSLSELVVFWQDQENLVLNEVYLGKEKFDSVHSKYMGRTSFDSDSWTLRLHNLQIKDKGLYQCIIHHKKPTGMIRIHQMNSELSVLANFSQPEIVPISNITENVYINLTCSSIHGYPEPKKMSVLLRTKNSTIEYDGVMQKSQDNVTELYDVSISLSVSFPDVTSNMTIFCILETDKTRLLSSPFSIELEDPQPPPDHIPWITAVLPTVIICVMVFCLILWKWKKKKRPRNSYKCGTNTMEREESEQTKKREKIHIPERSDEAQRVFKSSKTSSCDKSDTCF

T2: human B7-2Ig (recombinant soluble hB7-2Ig) (human, UniProt P42081 24-247)
T2 construct: extracellular domain; Secreted by CHO cells, purified on protein A, immobilized on the BIACORE chip; not shown: hinge-CH2-CH3 domains of the human IgG1 heavy chain
T2 sequence (looked up): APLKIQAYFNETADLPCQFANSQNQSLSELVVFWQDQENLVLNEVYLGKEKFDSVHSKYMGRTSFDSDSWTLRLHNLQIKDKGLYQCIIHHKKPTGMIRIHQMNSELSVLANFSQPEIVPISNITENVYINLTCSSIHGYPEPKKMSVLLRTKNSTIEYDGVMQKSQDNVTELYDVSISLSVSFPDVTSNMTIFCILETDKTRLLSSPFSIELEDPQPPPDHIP

T3: human B7-1 (CD80) expressed on the cell surface (CHO/hB7-1 cells) (human, UniProt P33681 35-288)
T3 construct: whole, on cells; Also used for native B7-1 on human PBL in the MLR; also called rhB7-1
T3 sequence (looked up): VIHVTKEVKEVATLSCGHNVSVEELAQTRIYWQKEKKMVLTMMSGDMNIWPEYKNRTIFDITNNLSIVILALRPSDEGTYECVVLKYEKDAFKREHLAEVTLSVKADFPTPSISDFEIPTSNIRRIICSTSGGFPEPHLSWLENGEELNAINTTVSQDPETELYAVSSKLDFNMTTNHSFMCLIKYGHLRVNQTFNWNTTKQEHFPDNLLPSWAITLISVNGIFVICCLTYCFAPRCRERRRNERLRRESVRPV

B1: humanized anti-human B7-2 mAb (humanized 3D1), isotype not stated in the example (antibody, V domains shown)
VH: QVQLVQSGAEVKKPGSSVKVSCKASGYTFTDYAIQWVRQAPGQGLEWIGVINIYYDNTNYNQKFKGKATMTVDKSTSTAYMELSSLRSEDTAVYYCARAAWYMDYWGQGTLVTVSS
VL: DIVLTQSPDSLAVSLGERATISCKSSQSLLNSRTRENYLAWYQQKPGQPPKLLIYWASTRESGVPDRFSGSGSGTDFTLTISSLQAEDVAVYYCTQSYNLYTFGQGTKVEIK
notes: Same variable regions; The entries include signal peptides (see the note of m2); also called humanized anti-B7-2; humanized anti-hB7-2
B2: humanized 3D1 antibody, IgG2.M3 form (antibody, V domains shown)
VH: B1 VH
VL: B1 VL
notes: Human gamma 2 constant region variant M3 (Val and Gly at positions 234 and 237 replaced with Ala; pVg2.M3 vector) and human kappa light chain; The entries include signal peptides (see the note of m2); also called humanized IgG2.M3 anti-human B7-2; hu3D1
B3: humanized 3D1 antibody, IgG4 form (antibody, V domains shown)
VH: B1 VH
VL: B1 VL
notes: Human gamma 4 constant region (pVg4 vector) and human kappa light chain (pVk); also called humanized IgG4 anti-human B7-2; hu3D1
B4: humanized 1F1 antibody, IgG2.M3 form (antibody, V domains shown)
VH: EVQLVQSGAEVKKPGASVKVSCKPSGFNIKDYYMHWVRQAPGQGLEWIGWIDPENGNTLYDPKFQGKATITADTSTSTAYMELSSLRSEDTAVYYCAREGLFFAYWGQGTLVTVSS
VL: DIQMTQSPSSLSASVGDRVTITCSVSSSISSSNLHWYQQKPGKAPKPLIYGTSNLASGVPSRFSGSGSGTDYTLTISSLQPEDVATYYCQQWSSYPLTFGQGTKVEIK
notes: Human gamma 2 constant region variant M3 (Val and Gly at positions 234 and 237 replaced with Ala) and human kappa light chain; also called hu1F1; the IgG2.M3 antibody
B5: murine 3D1 monoclonal antibody (murine anti-human B7-2 mAb) (antibody, V domains shown)
VH: QVQLQQSGPELVRPGESVKISCKGSGYTFTDYAIQWVKQSHAKSLEWIGVINIYYDNTNYNQKFKGKATMTVDKSSSTAYMELARLTSEDSAIYYCARAAWYMDYWGQGTSVTVSS
VL: DIVLSQSPSSLAVSAGEKVTMSCKSSQSLLNSRTRENYLAWYQQKPGQSPKLLIYWASTRESGVPDRFTGSGSGTDFTLTISSVQAEDLAVYYCTQSYNLYTFGGGTKLEIK
notes: Hybridoma mouse antibody with kappa light chain; also called HF2.3D1; mouse 3D1

Legend:
[1] = molecular target: T1, human B7-2 (CD86) expressed on the cell …; test: cell-based or functional assay
[2] = molecular target: T2, human B7-2Ig (recombinant soluble …); test: SPR (BIACORE), hB7-2Ig immobilized, bivalent model, mean of three runs
Protocol: (§1) The BIACORE® biosensor (BIACORE®; Uppsalla, Sweden) was used to determine binding kinetics of murine and humanized anti-B7-2 human antibodies to human B7-2Ig. Hunan B7-2Ig (hB7-2Ig) was immobilized onto the dextran matrix of a BIACORE® sensor chip. Humanized and murine anti-human B7-2 were tested at 200, 100, 50, and 20 nM. Each dilution was tested 4 times per run and a total of three separate runs performed. Anti-human B7-2 antibody binding was measured in real time by Surface Plasmon Resonance (SPR) and global analysis was performed using the bivalent binding model in BIA evaluation software (version 3.1). For each sample, the association (kₐ), dissociation (kd), and equilibrium dissociation constant (KD) were determined.

[3] = molecular target: T3, human B7-1 (CD80) expressed on the cell …; test: 125I direct binding, CHO cells expressing B7-1 as control for non-specific binding
Excerpt: (§2) Binding assays were begun by plating cells onto 96-well tissue culture plates at 10,000 CHO/hB7-2 cells per well. Two days later, adherent cells were gently washed with assay buffer containing nonfat dry milk protein (for blocking nonspecific binding) and sodium azide (to prevent internalization of antibodies by cells). For direct binding assays, ¹²⁵I-labeled anti-B7 antibodies (¹²⁵I-murine anti-human B7-2; 826 cpm/fmol; humanized anti-human B7-2, 883 cpm/fmol) were serially diluted in assay buffer and incubated on cells overnight, allowing antibodies to bind to cell-surface B7 and come to equilibrium. Unbound antibody was gently washed from cells, and bound ¹²⁵I-labeled antibody was detected using an ¹²⁵I scintillant and photodetector system. Non-specific binding to CHO cells was determined for each dilution in the same manner, but on cells expressing the B7-1 molecule that is not recognized by the antibody being tested.

[4] = molecular target: T1, human B7-2 (CD86) expressed on the cell …; test: direct binding of 125I-labeled antibody to CHO/hB7-2 cells, half-maximal binding
Excerpt: as §2
The data, means of triplicate wells with nonspecific binding subtracted, were fit to a hyperbolic saturation curve using Graphpad PrismJ software. […] Both murine and humanized anti-B7-2 antibodies recognize cell surface expressed hB7-2 with high affinity.

[5] = molecular target: T1, human B7-2 (CD86) expressed on the cell …; test: competitive binding against 125I-murine 3D1 on CHO/hB7-2 cells
Protocol: (§3) The relative affinities, of the murine and humanized 3D1 antibodies for the B7-2 antigen were determined by competitive binding assays. Three-fold serial dilutions of unlabeled humanized or murine 3D1 antibodies were mixed with a fixed amount of radio-iodinated murine 3D1 antibody (40,000-50,000 cpm per test in PBS containing 2% fetal calf serum).
(§4) 1×10⁵ CHO cells expressing cell surface rhB7-2 (CHO/hB7-2) were added subsequently and the mixture (in a total volume of 200 μL) was incubated for 2 hr at 4° C. with gentle shaking. The cell-antibody suspension was then transferred to Sarstedt Micro Tubes (part #72.702) containing 100 μL of 80% dibutyl phthalate-20% olive oil. After centrifugation in a microfuge, the Sarstedt tubes were plunged into dry ice for several minutes. Cell-bound ¹²⁵I was determined by clipping tips of each tube (containing cell pellets) into scintillation vials and counting in a gamma counter. Bound and free counts were determined and the ratio plotted against the concentrations of the cold competitor antibodies according to the method of Berzofsky and Berkower (J. A. Berzofsky and I. J. Berkower, in Fundamental Immunology 9ed. W. E. Paul), Raven Press (New York), 595 (1984)).

[6] = molecular target: T1, human B7-2 (CD86) expressed on the cell …; test: competition binding on CHO/hB7-2 cells: unlabeled competitor against 125I-murine 3D1 tracer, bound/free ratio
Protocol: as §3, §4

[7] = molecular target: T3, human B7-1 (CD80) expressed on the cell …; test: competitive binding against 125I-humanized 1F1 on CHO cells expressing rhB7-1
Protocol: as §4, with “The affinity of the mouse and humanized 1F1 antibodies for the B7-1 antigen was determined by competitive binding with radio-iodinated humanized 1F1 antibody. Three-fold serial dilutions of unlabeled mouse or humanized 1F1 antibodies were mixed with a fixed amount of radio-iodinated humanized 1F1 antibody (40,000-50,000 cpm per test) in PBS containing 2% fetal calf serum, 0.1% sodium azide. 3×10⁴” for “1×10⁵”, “rhB7-1” for “rhB7-2 (CHO/hB7-2)”, “clipping the” for “clipping”, “Immunology,” for “Immunology 9ed.”, “Paul,” for “Paul),”, “Press, New York, pp. 595-644” for “Press (New York), 595”

[8] = molecular target: T3, human B7-1 (CD80) expressed on the cell …; test: competition binding on CHO cells expressing rhB7-1: unlabeled competitor against 125I-humanized 1F1 tracer, bound/free ratio
Protocol: as §4, with “The affinity of the mouse and humanized 1F1 antibodies for the B7-1 antigen was determined by competitive binding with radio-iodinated humanized 1F1 antibody. Three-fold serial dilutions of unlabeled mouse or humanized 1F1 antibodies were mixed with a fixed amount of radio-iodinated humanized 1F1 antibody (40,000-50,000 cpm per test) in PBS containing 2% fetal calf serum, 0.1% sodium azide. 3×10⁴” for “1×10⁵”, “rhB7-1” for “rhB7-2 (CHO/hB7-2)”, “clipping the” for “clipping”, “Immunology,” for “Immunology 9ed.”, “Paul,” for “Paul),”, “Press, New York, pp. 595-644” for “Press (New York), 595”

[9] = molecular target: T2, human B7-2Ig (recombinant soluble …); test: SPR (BIACORE), hB7-2Ig immobilized
Protocol: as §1

Binder | IC50 of inhibition of CD28+ human T cell proliferation stimulated with PMA and CHO/hB7-2 cells [1] | Kd [2] | binding result [3] | Kd [4] | Ka [5] | further results
B1 | 50 pM | 5.1 nM | no binding | ~1 nM | – | –
B2 | – | – | – | – | ~1e+09 M⁻¹ | –
B3 | – | – | – | – | ~1e+09 M⁻¹ | IC50 (read off the curve) [6]: ~1 nM
B4 | – | – | – | – | – | Ka [7]: ~1e+09 M⁻¹; IC50 (read off the curve) [8]: ~1 nM
B5 | 72 pM | 1.8 nM | no binding | ~1 nM | ~1e+09 M⁻¹ | fold higher affinity than the humanized anti-B7-2 mAb [9]: ~2.8 fold
